Assay results taken from the Human Domainome abundance scans (Beltran et al. 2025).

B1: Glucocorticoid receptor, residues 419 to 494; numbered along this chain, P04150 (parent)
chain: KLCLVCSDEASGCHYGVLTCGSCKVFFKRAVEGQHNYLCAGRNDCIIDKIRRKNCPACRYRKCLQAGMNLEARKTK

Variants of: B1
Experiment: abundance fitness (aPCA) (normalised: wild type 0, dead -1); higher = more abundant; growth selection in yeast, the domain comes from the species named
Conditions: Homo sapiens

Abundance fitness, by site and new letter:
R61: P -0.854 | Q 0.101 | V 0.064 | C -0.112 | G -0.063 | L 0 | H -0.079 | D 0.016 | I -0.083 | A 0.054 | Y -0.089 | K -0.017 | F -0.13 | S -0.004 | E 0.026
M68: W -0.846 | K -0.632 | E -0.529 | C -0.12 | D -0.768 | R -0.719 | V -0.472 | A -0.377 | I -0.422 | T -0.595 | Y -0.215 | N -0.62 | G -0.574 | Q -0.999 | H -0.551 | P -0.928 | F -0.076 | S -0.771 | L -0.133
A66: W -0.227 | Y -0.014 | T 0.029 | R -0.179 | M -0.031 | N -0.02 | L -0.024 | V 0.021 | H -0.052 | K 0.024 | C -0.037 | I -0.242 | E -0.036 | G -0.109 | S -0.058 | D -0.33 | Q -0.037 | P -0.859
L70: V 0.021 | F -0.08 | G -0.068 | N -0.011 | S 0.052 | A -0.058 | E -0.021 | Q -0.02 | I -0.018 | C -0.029 | Y 0.023 | H 0.01 | M 0.052 | T -0.03 | D -0.033 | R 0.023 | K -0.029 | W -0.033
P56: Q -0.001 | S -0.035 | T -0.06 | A 0 | L -0.047 | R -0.076 | E 0.015 | F -0.003 | N 0.013 | I -0.19 | H -0.111 | C 0.052 | K -0.108 | G -0.085 | V -0.064 | M -0.053
L64: S -0.082 | C 0.025 | E 0.016 | M -0.023 | F -0.107 | Y -0.161 | K -0.01 | N -0.083 | D -0.296 | T -0.074 | P -0.682 | W -0.031 | G -0.273 | A -0.154
E71: V -0.01 | R -0.095 | N -0.017 | W -0.106 | K -0.077 | C -0.052 | F -0.072 | A -0.135 | Q -0.051 | P -0.038 | Y -0.131 | I -0.016 | H -0.09 | S -0.016 | L -0.104 | D 0.008 | T -0.076 | G -0.009
N69: I -0.089 | Y -0.105 | S 0.039 | G -0.047 | P -0.252 | E -0.02 | F -0.023 | V -0.049 | L -0.11 | K 0.001 | A 0.006 | T 0.011 | W -0.061 | H 0.028 | M -0.022 | D -0.033 | R 0.01 | Q -0.071
N54: S -0.081 | M -0.064 | P -0.25 | G -0.104 | D -0.015 | V -0.025 | I 0.014 | K 0.049 | F -0.061 | W -0.064 | T -0.005 | A 0.05 | R -0.053 | Q -0.006 | H 0.011 | C -0.136 | L -0.021 | E -0.025 | Y 0.014
A72: N -0.037 | H -0.044 | R -0.054 | I 0.002 | K 0.049 | Y 0.011 | G -0.023 | D -0.017 | S -0.067 | V -0.043 | F -0.285 | Q 0.008 | P -0.077 | M 0.005 | E 0.047 | L -0.015 | W -0.023
Q65: F -0.045 | L -0.035 | Y -0.09 | P -0.567 | A -0.019 | T -0.086 | H 0.09 | R -0.053 | V -0.029 | D 0.045 | E -0.06 | M -0.057 | N -0.071 | S -0.009 | K -0.052 | C -0.111 | G -0.06 | W -0.063
K62: M -0.042 | L -0.048 | S -0.166 | T -0.047 | F -0.158 | V -0.119 | W -0.505 | P -0.867 | C 0.007 | G -0.105 | D -0.336 | Y -0.187 | A -0.015 | Q -0.066 | N -0.031 | R -0.05 | E -0.2
C55: W -0.588 | V -0.739 | M -1.16 | F -1.02 | Y -0.66 | H -0.911 | S -0.707 | T -0.849 | R -0.929 | G -0.814 | P -0.757 | I -0.801 | Q -0.838 | D -1.13 | L -1.1 | K -0.877
A57: L -0.582 | G -0.071 | T -0.571 | N -0.266 | C -0.039 | I -0.614 | D -0.182 | P -0.247 | Q -0.195 | V -0.656 | K -0.06 | E -0.146 | W -0.669 | F -0.457 | M -0.587 | S -0.02
Y60: A -0.425 | V -0.215 | K -0.011 | M -0.07 | C -0.694 | I -0.09 | N -0.478 | W -0.036 | P -0.724 | F 0.004 | G -0.809 | H -0.178 | L 0.002 | D -0.907 | S -0.535
G67: A -0.542 | T -0.51 | R -0.491 | D -0.347 | E -0.228 | P -0.904 | K -0.308 | Y -0.304 | C -0.534 | S -0.516 | W -0.656 | N -0.226 | I -0.415 | Q -0.371 | V -0.583 | F -0.447
R73: G -0.021 | H -0.109 | D -0.125 | I -0.066 | C -0.019 | L -0.04 | F -0.059 | K 0.004 | M 0.012 | E -0.015
C63: R -0.772 | T -0.909 | F -0.322 | N -0.667 | K -0.779 | M -0.075 | H -0.813 | W -0.889 | S -0.42 | L -0.741 | V -0.863 | Q -0.661 | Y -0.85 | A -0.28 | I -0.546 | D -0.915 | E -0.871 | G -0.06
K53: Y -0.026 | W -0.075
C58: F -1 | K -1.06 | G -0.81 | A -0.935 | S -0.697 | H -0.701 | Q -0.768 | P -0.842 | V -0.903 | I -0.81 | L -0.789 | W -1.08 | R -1.04 | D -0.872 | M -0.896 | E -0.633 | Y -0.405
R59: E -0.583 | P -0.737 | G -0.825 | W 0.017 | H 0.014 | N -0.817 | I -0.694 | Y -0.087 | V -0.783 | Q -0.259 | A -0.702 | L -0.017 | D -0.609 | S -0.81 | M -0.171 | K -0.52 | F -0.513
